# Where a chain is given by its changes, count along the chain named.
# B1: α1 -NAT: native α1-antitrypsin, naturally-occurring protease inhibitor (-Ala-Ile-Pro-Met- at positions 355-358) (protein)
# chain: EDPQGDAAQKTDTSHHDQDHPTFNKITPNLAEFAFSLYRQLAHQSNSTNIFFSPVSIATAFAMLSLGTKADTHDEILEGLNFNLTQIPEAQIHEGFQELLRTLNQPDSQLQLTTGNGLFLSQGLKLVDKFLEDVKKLYHSEAFTVNFGDTEQAKKQINDYVEKGTQGKIVDLVKELDRDTVFALVNYIFFKGKWERPFEVKDTEEEDFHVDQVTTVKVPMMKRLGMFNIQHCKKLSSWVLLMKYLGNATAIFFLPDEGKLQHLENELTHDIITKFLENEDRRSASLHLPKLSITGTYDLKSVLGQLGITKVFSNGADLSGVTEEAPLKLSKAVHKAVLTIDEKGTEAAGAMFLEAIPMSIPPEVKFNKPFVFLMIEQNTKSPLFMGKVVNPTGK
# B2: α1 -PIT: naturally-occurring variant α1-antitrypsin Pittsburgh, Met358→Arg358 mutation (Ala355-Ile-Pro-Arg358) (protein)
# chain: B1 chain with M358R
# Assays:
# [1] = target: furin endoprotease endogenous to BSC-40 cells
# elastase [2] = target: elastase
# thrombin [3] = target: thrombin
# [4] = tested on: syncytium formation IP/IR cells / CD4+ HeLa cells; assay type: cell-based, human; conditions: serpin co-expressed with gp160 in IP/IR cells
# elastase [5] = assay type: biochemical; conditions: relative concentration of serpin inhibitor 100
# [6] = tested on: furin-mediated processing of HIV-1 gp160 in BSC-40 cells; assay type: cell-based, African green monkey
# [7] = tested on: furin-mediated processing of pro-β-NGF in BSC-40 cells; assay type: cell-based, African green monkey
# Human furin = assay type: biochemical; conditions: for percent endoprotease activity in presence of each serpin (Furin): relative concentration of serpin inhibitor 100; for inhibition of furin endoprotease activity (FIG. 2, in words): serpin 10 μg/mL, 20 min 37° C. pre-incubation, substrate 50 μM
# thrombin [8] = assay type: biochemical
Molecule,percent of pro-β-NGF processed in VV:mNGF-infected BSC-40 cells with α1 -PDX protein in the medium (densitometry) (% processed at 50 µg/mL) [1],percent endoprotease activity in presence of each serpin (elastase [2]) [%],percent endoprotease activity in presence of each serpin (thrombin [3]) [%],effect on gp41-mediated syncytia formation (FIGS. 6D-6F) [4],percent endoprotease activity in presence of each serpin (Elastase) (elastase [5]) [%],gp160 processing products in co-infected cells (FIG. 4) [6],forms of β-NGF secreted by co-infected cells (FIG. 3) [7],percent endoprotease activity in presence of each serpin (Furin) (Human furin) [%],"inhibition of furin endoprotease activity (FIG. 2, in words) (Human furin)","inhibition of thrombin endoprotease activity (FIG. 2, in words) (thrombin [8]; FIG. 2)",percent endoprotease activity in presence of each serpin (Thrombin) (thrombin [8]; relative concentration of serpin inhibitor 100) [%]
α1 -antitrypsin Portland,10,101,95,,,,,,,,
α1 -antitrypsin Pittsburgh,,98,8,,,,,,,,
native α1 -antitrypsin,,13,,,,,,,,,
B1,,,,had no effect on syncytia formation,13,produced both unprocessed gp160 and processed gp120 and gp41,produced both the processed and unprocessed forms of β-NGF,101,unable to inhibit,,
B2,,,,had no effect on syncytia formation,98,produced both unprocessed gp160 and processed gp120 and gp41,produced both the processed and unprocessed forms of β-NGF,97,not furin,specifically inhibited,8
